From patent US20210230570 come the findings set out here.

Series [1] has as its target Factor X (FX), P00742.
The target in series [2] is plasma purified human AT-III (Molecular Innovations).
The target of series [3] is Factor X, P00742.
Series [4] has as its target antithrombin III (plasma purified human AT-III), in complex with unfractionated heparin.
For series [5], the target named is plasma purified human antithrombin III (AT-III) in complex with unfractionated heparin (AT-III/UFH).

Factor X, P00742, sequence (P00742 whole entry, looked up): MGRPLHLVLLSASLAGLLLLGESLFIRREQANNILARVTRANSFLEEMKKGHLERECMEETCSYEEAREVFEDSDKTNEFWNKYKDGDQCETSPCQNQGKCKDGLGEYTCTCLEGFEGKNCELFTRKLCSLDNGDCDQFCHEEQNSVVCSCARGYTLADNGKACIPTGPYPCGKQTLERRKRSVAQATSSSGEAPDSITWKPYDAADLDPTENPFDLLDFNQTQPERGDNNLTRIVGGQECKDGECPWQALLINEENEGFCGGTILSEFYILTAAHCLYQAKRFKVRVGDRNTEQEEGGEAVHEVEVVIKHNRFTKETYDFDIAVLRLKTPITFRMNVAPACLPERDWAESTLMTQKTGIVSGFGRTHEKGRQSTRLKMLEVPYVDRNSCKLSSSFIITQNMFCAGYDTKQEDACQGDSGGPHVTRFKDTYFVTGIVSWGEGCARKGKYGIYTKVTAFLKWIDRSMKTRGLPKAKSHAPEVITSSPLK
Factor X (FX), P00742, sequence (P00742 whole entry, looked up): as above

B1: FIXa-K293A/R338A/R403A (protein)
chain 1: YNSGKLEEFVQGNLERECMEEKCSFEEAREVFENTERTTEFWKQYVDGDQCESNPCLNGGSCKDDINSYECWCPFGFEGKNCELDVTCNIKNGRCEQFCKNSADNKVVCSCTEGYRLAENQKSCEPAVPFPCGRVSVSQTSKLTR
chain 2: VVGGEDAKPGQFPWQVVLNGKVDAFCGGSIVNEKWIVTAAHCVETGVKITVVAGEHNIEETEHTEQKRNVIRIIPHHNYNAAINKYNHDIALLELDEPLVLNSYVTPICIADAEYTNIFLKFGSGYVSGWGRVFHKGRSALVLQYLRVPLVDRATCLASTKFTIYNNMFCAGFHEGGRDSCQGDSGGPHVTEVEGTSFLTGIISWGEECAMKGKYGIYTKVSAYVNWIKEKTKLT
With B1, in series [1], the kcat (FX activation in the Xase complex) worked out at 1.6 s⁻¹ and the kcat/KM for FX activation (Xase assay with FVIIIa, PC/PS vesicles, Ca2+) was 2.5e+07 M⁻¹ s⁻¹. The protein further gave a K0.5-mut/K0.5-wt in series [2] of 16.9. In series [3], the “% of WT (kcat/KM)” value turned out to be 53% and the kcat/KM worked out at 2.5e+07 M⁻¹ s⁻¹. Further, in series [4], the K0.5 was greater than 999 nM and the K0.5-mut/K0.5-wt was greater than 51.7.

B2: FIXa Y155F/R318Y/R338E/R403E/E410N (mature FIX numbering) (protein)
chain 1: YNSGKLEEFVQGNLERECMEEKCSFEEAREVFENTERTTEFWKQYVDGDQCESNPCLNGGSCKDDINSYECWCPFGFEGKNCELDVTCNIKNGRCEQFCKNSADNKVVCSCTEGYRLAENQKSCEPAVPFPCGRVSVSQTSKLTR
chain 2: VVGGEDAKPGQFPWQVVLNGKVDAFCGGSIVNEKWIVTAAHCVETGVKITVVAGEHNIEETEHTEQKRNVIRIIPHHNYNAAINKYNHDIALLELDEPLVLNSYVTPICIADKEYTNIFLKFGSGYVSGWGRVFHKGYSALVLQYLRVPLVDRATCLESTKFTIYNNMFCAGFHEGGRDSCQGDSGGPHVTEVEGTSFLTGIISWGEECAMKGKYGIYTKVSEYVNWIKNKTKLT
As to B2, in series [5], the K0.5 is greater than 10 µM.

B3: FIXa D203N/F205T/R318Y/E410N (mature FIX numbering) (protein)
chain 1: YNSGKLEEFVQGNLERECMEEKCSFEEAREVFENTERTTEFWKQYVDGDQCESNPCLNGGSCKDDINSYECWCPFGFEGKNCELDVTCNIKNGRCEQFCKNSADNKVVCSCTEGYRLAENQKSCEPAVPFPCGRVSVSQTSKLTR
chain 2: VVGGEDAKPGQFPWQVVLNGKVNATCGGSIVNEKWIVTAAHCVETGVKITVVAGEHNIEETEHTEQKRNVIRIIPHHNYNAAINKYNHDIALLELDEPLVLNSYVTPICIADKEYTNIFLKFGSGYVSGWGRVFHKGYSALVLQYLRVPLVDRATCLRSTKFTIYNNMFCAGFHEGGRDSCQGDSGGPHVTEVEGTSFLTGIISWGEECAMKGKYGIYTKVSRYVNWIKNKTKLT
Take B3: the K0.5 in series [5] came to 1.28 µM.

B4: FIXa A103N/N105S/Y155F/R318Y/R338E/R403E/E410N (mature FIX numbering) (protein)
chain 1: YNSGKLEEFVQGNLERECMEEKCSFEEAREVFENTERTTEFWKQYVDGDQCESNPCLNGGSCKDDINSYECWCPFGFEGKNCELDVTCNIKNGRCEQFCKNSNDSKVVCSCTEGYRLAENQKSCEPAVPFPCGRVSVSQTSKLTR
chain 2: VVGGEDAKPGQFPWQVVLNGKVDAFCGGSIVNEKWIVTAAHCVETGVKITVVAGEHNIEETEHTEQKRNVIRIIPHHNYNAAINKYNHDIALLELDEPLVLNSYVTPICIADKEYTNIFLKFGSGYVSGWGRVFHKGYSALVLQYLRVPLVDRATCLESTKFTIYNNMFCAGFHEGGRDSCQGDSGGPHVTEVEGTSFLTGIISWGEECAMKGKYGIYTKVSEYVNWIKNKTKLT
Protein B4 yielded a K0.5 in series [5] greater than 10 µM.

B5: FIXa D104N/K106S/R318Y/R338E/R403E/E410N (mature FIX numbering) (protein)
chain 1: YNSGKLEEFVQGNLERECMEEKCSFEEAREVFENTERTTEFWKQYVDGDQCESNPCLNGGSCKDDINSYECWCPFGFEGKNCELDVTCNIKNGRCEQFCKNSANNSVVCSCTEGYRLAENQKSCEPAVPFPCGRVSVSQTSKLTR
chain 2: VVGGEDAKPGQFPWQVVLNGKVDAFCGGSIVNEKWIVTAAHCVETGVKITVVAGEHNIEETEHTEQKRNVIRIIPHHNYNAAINKYNHDIALLELDEPLVLNSYVTPICIADKEYTNIFLKFGSGYVSGWGRVFHKGYSALVLQYLRVPLVDRATCLESTKFTIYNNMFCAGFHEGGRDSCQGDSGGPHVTEVEGTSFLTGIISWGEECAMKGKYGIYTKVSEYVNWIKNKTKLT
Consider B5, for which the K0.5 in series [5] is greater than 10 µM.

B6: FIXa-K293E/R338E/R403E (protein)
chain 1: YNSGKLEEFVQGNLERECMEEKCSFEEAREVFENTERTTEFWKQYVDGDQCESNPCLNGGSCKDDINSYECWCPFGFEGKNCELDVTCNIKNGRCEQFCKNSADNKVVCSCTEGYRLAENQKSCEPAVPFPCGRVSVSQTSKLTR
chain 2: VVGGEDAKPGQFPWQVVLNGKVDAFCGGSIVNEKWIVTAAHCVETGVKITVVAGEHNIEETEHTEQKRNVIRIIPHHNYNAAINKYNHDIALLELDEPLVLNSYVTPICIADEEYTNIFLKFGSGYVSGWGRVFHKGRSALVLQYLRVPLVDRATCLESTKFTIYNNMFCAGFHEGGRDSCQGDSGGPHVTEVEGTSFLTGIISWGEECAMKGKYGIYTKVSEYVNWIKEKTKLT
Consider B6, for which, in series [1], the kcat (FX activation in the Xase complex) is 0.8 s⁻¹ and the kcat/KM for FX activation (Xase assay with FVIIIa, PC/PS vesicles, Ca2+) came to 1.7e+07 M⁻¹ s⁻¹. In series [2], this protein registered a K0.5-mut/K0.5-wt of 14.2. Further, in series [3], the “% of WT (kcat/KM)” value turned out to be 36%, the KM (Catalytic activity of FIXa variants) was 0.05 µM and the kcat/KM came out at 1.7e+07 M⁻¹ s⁻¹. For the same protein, in series [4], the K0.5 is greater than 999 nM and the K0.5-mut/K0.5-wt was greater than 51.7.

B7: FIXa D104N/K106S/Y155F/R318Y/R338E/R403E/E410N (mature FIX numbering) (protein)
chain 1: YNSGKLEEFVQGNLERECMEEKCSFEEAREVFENTERTTEFWKQYVDGDQCESNPCLNGGSCKDDINSYECWCPFGFEGKNCELDVTCNIKNGRCEQFCKNSANNSVVCSCTEGYRLAENQKSCEPAVPFPCGRVSVSQTSKLTR
chain 2: VVGGEDAKPGQFPWQVVLNGKVDAFCGGSIVNEKWIVTAAHCVETGVKITVVAGEHNIEETEHTEQKRNVIRIIPHHNYNAAINKYNHDIALLELDEPLVLNSYVTPICIADKEYTNIFLKFGSGYVSGWGRVFHKGYSALVLQYLRVPLVDRATCLESTKFTIYNNMFCAGFHEGGRDSCQGDSGGPHVTEVEGTSFLTGIISWGEECAMKGKYGIYTKVSEYVNWIKNKTKLT
In the case of B7, the K0.5 in series [5] was greater than 10 µM.

A word on the kcat/KM: it is the turnover number divided by the Michaelis constant.
